± gives the uncertainty stated by the source.
Assay: self-splicing fitness, log relative to wild type (ln ratio); higher = more splicing; Tetrahymena group I intron in knt gene, E. coli kanamycin selection, DiMSum; sequences stand for … in CUCUCU…GGAGGGAAAAGUUAUCAGGCAUGCACCUGGUAGCUAGUCUUUAAACCAAUAGAUUGCAUCGGUUUAAAAGGCAAGACCGUCAAAUUGCGGGAAAGGGGUCAACAGCCGUUCAGUACCAAGUCUCAGGGGAAACUUUGAGAUGGCCUUGCAAAGGGUAUGGUAAUAAGCUGACGGACAUGGUCCUAACCACGCAGCCAAGUCCUAAGUCAACAGAUCUUCUGUUGAUAUGGAUGCAGUUCACAGACUAAAUGUCGGUCGGGGAAGAUGUAUUCUUCUCAUAAGAUAUAGUCGGACCUCUCCUUAAUGGGAGCUAGCGGAUGAAGUGAUGCAACACUGGAGCCGCUGGGAACUAAUUUGUAUGCGAAAGUAUAUUGAUUAGUUUUGGAGUACUCGUGGUCG
Method in brief: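 DiMSum derived fitness as the error-weighted combination of fold changes across replicates, kanamycin versus no kanamycin, normalised to wild type. E. coli BL21(DE3) held the library, which randomised all eight P1ex-region intron nucleotides within the knt kanamycin-resistance gene on pET-22b(+). Six replicate transformations grew overnight at 37°C or 30°C on LB agar with or without 25 μg/mL kanamycin, also containing 100 μg/mL carbenicillin, 50 μM IPTG and 0.2% rhamnose, and pooled colonies were amplicon-sequenced on an Illumina HiSeq 2500.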

Sequence	self-splicing fitness (ln) (30 °C)	self-splicing fitness (ln) (37 °C)
UCGAAGCAAUAUUACGGACG	-0.371 ± 0.13	0.158 ± 0.12
UCGAAGCAAUAUUACGGAUC	-3.14 ± 0.23	-2.64 ± 0.37
UCGAAGCAAUAUUACGGCCU	-2.16 ± 0.22	-1.77 ± 0.21
UCGAAGCAAUAUUACGGCUA	-2.29 ± 0.15	-1.41 ± 0.099
UCGAAGCAAUAUUACGGCUG	-1.98 ± 0.14	-0.494 ± 0.14
UCGAAGCAAUAUUACGGGUU	-4.87 ± 0.29	-1.47 ± 0.14
UCGAAGCAAUAUUACGGUAU	-3.58 ± 0.16	-1.73 ± 0.14
UCGAAGCAAUAUUACGGUUU	-3.83 ± 0.21	-2.72 ± 0.29
UCGAAGCAAUAUUACGUAAU	-3.88 ± 0.15	-1.62 ± 0.12
UCGAAGCAAUAUUACGUACG	-1.01 ± 0.082	0.00936 ± 0.11
UCGAAGCAAUAUUACGUCAA	-1.52 ± 0.11	-1.15 ± 0.1
UCGAAGCAAUAUUACGUCCA	-1.08 ± 0.13	-0.411 ± 0.14
UCGAAGCAAUAUUACGUCGG	-2.65 ± 0.17	-3.7 ± 0.31
UCGAAGCAAUAUUACGUGCG	-1.07 ± 0.086	-0.299 ± 0.1
UCGAAGCAAUAUUACGUGUC	–	-2.37 ± 0.37
UCGAAGCAAUAUUACGUUCU	-1.72 ± 0.091	-1.53 ± 0.13
UCGCAGCAAUAUUACGACGC	-1.81 ± 0.48	–
UCGCAGCAAUAUUACGAUUA	-1.06 ± 0.11	-0.805 ± 0.11
UCGCAGCAAUAUUACGCAAU	-2.15 ± 0.19	-2.92 ± 0.35
UCGCAGCAAUAUUACGCAUC	-2.52 ± 0.21	-1.57 ± 0.17

Sequence	self-splicing fitness (ln) (30 °C)	self-splicing fitness (ln) (37 °C)
UCGCAGCAAUAUUACGCCGU	-3.48 ± 0.26	-2.99 ± 0.4
UCGCAGCAAUAUUACGCGAU	-2.55 ± 0.18	-2.97 ± 0.25
UCGCAGCAAUAUUACGCGGA	–	-2.29 ± 0.25
UCGCAGCAAUAUUACGCUAA	-1.96 ± 0.14	-1.72 ± 0.15
UCGCAGCAAUAUUACGCUCG	-3.23 ± 0.28	-1.61 ± 0.2
UCGCAGCAAUAUUACGGACA	-1.38 ± 0.17	-1.83 ± 0.14
UCGCAGCAAUAUUACGGCAA	-0.188 ± 0.079	0.0609 ± 0.11
UCGCAGCAAUAUUACGGCCC	–	-2.41 ± 0.41
UCGCAGCAAUAUUACGGGCU	-3.71 ± 0.17	-2.63 ± 0.16
UCGCAGCAAUAUUACGGUCG	-0.126 ± 0.094	0.0192 ± 0.14
UCGCAGCAAUAUUACGUCAU	-3.77 ± 0.14	-2.65 ± 0.13
UCGCAGCAAUAUUACGUCGA	-1.81 ± 0.13	-2.03 ± 0.18
UCGCAGCAAUAUUACGUCGU	-1.95 ± 0.081	-0.965 ± 0.096
UCGCAGCAAUAUUACGUGAU	-2.2 ± 0.25	-3.26 ± 0.35
UCGCAGCAAUAUUACGUGGC	-3.81 ± 0.42	-2.45 ± 0.31
UCGCAGCAAUAUUACGUGGU	-3.38 ± 0.13	-3.24 ± 0.19
UCGCAGCAAUAUUACGUGUU	-2.49 ± 0.092	-1.67 ± 0.11
UCGCAGCAAUAUUACGUUAU	-3.3 ± 0.26	-2.51 ± 0.24
UCGCAGCAAUAUUACGUUUG	-2.89 ± 0.099	-1.09 ± 0.11

From the supplement of paper PMC7877785
